Changes are numbered by the printed parent chain. Names and notes keep the numbering of the source. Values joined by “and” are separate entries in the source; they are usually repeats but may differ in a detail not shown here. Identical values can stand only once. Like-named read-outs stand apart in the source and are kept apart here. Each block holds one molecule with its values, some of them ahead of it. Primed or numbered codes have the meaning given here. Where no end group is shown, it is not given here. The star is where a group is joined. Myristoyl = CCCCCCCCCCCCCC(=O)*; PEG4′ = PEG4 linker
T1: SIRT2 catalytic domain (SIRT2^cat), amino acids 34–356 (human, UniProt Q8IXJ6-1 34-356)
T1 chain: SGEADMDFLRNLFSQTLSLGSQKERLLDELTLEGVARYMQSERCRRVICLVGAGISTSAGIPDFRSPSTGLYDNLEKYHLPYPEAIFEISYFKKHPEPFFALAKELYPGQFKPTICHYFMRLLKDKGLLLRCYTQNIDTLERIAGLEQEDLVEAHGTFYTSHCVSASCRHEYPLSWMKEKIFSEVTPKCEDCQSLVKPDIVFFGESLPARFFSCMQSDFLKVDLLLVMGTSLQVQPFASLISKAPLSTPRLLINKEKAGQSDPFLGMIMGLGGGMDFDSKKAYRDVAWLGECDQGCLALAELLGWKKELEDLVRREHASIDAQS

T2: full-length SIRT2 (amino acids 1–389) (human), Q8IXJ6
T2 chain: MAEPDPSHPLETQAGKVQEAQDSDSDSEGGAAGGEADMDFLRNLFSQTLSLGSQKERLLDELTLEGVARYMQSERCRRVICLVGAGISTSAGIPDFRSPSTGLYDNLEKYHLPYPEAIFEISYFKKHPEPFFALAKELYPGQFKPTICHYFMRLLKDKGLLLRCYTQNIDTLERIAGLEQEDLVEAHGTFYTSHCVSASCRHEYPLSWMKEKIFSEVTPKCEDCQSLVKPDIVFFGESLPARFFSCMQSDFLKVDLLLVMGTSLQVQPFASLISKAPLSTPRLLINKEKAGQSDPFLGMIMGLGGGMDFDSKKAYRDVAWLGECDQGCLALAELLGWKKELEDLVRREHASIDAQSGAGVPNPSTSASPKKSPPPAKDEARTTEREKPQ

B1: SIRT2^cat(Q142A/E340A) (domain or fragment, human)
chain: T1 chain with Q110A, E308A
B2: SIRT2cat catalytic domain (protein)
chain: ERLLDELTLEGVARYMQSERCRRVICLVGAGISTSAGIPDFRSPSTGLYDNLEKYHLPYPEAIFEISYFKKHPEPFFALAKELYPGQFKPTICHYFMRLLKDKGLLLRCYTQNIDTLERIAGLEQEDLVEAHGTFYTSHCVSASCRHEYPLSWMKEKIFSEVTPKCEDCQSLVKPDIVFFGESLPARFFSCMQSDFLKVDLLLVMGTSLQVQPFASLISKAPLSTPRLLINKEKAGQSDPFLGMIMGLGGGMDFDSKKAYRDVAWLGECDQGCLALAELLGWKKELEDLVRREHASIDAQS
B3: FAM-myristoyl-H4K16 peptide (peptide)
peptide: {FAM-PEG4′}-KGLGKGGAK(Myristoyl)RHRK-OH
B4: myristoyl-H4K16 peptide (13mer) (peptide)
peptide: KGLGKGGAK(Myristoyl)RHRK
notes: also called myristoyl peptide; myristoylated peptide; source: synthetic peptide (New England Peptide)
B5: full-length SIRT2 (amino acids 1–389), Q8IXJ6-1 1-389 (enzyme)
chain: T2 chain

Legend:
[1] = biological target: SIRT2 catalytic domain (SIRT2^cat), amino acids 34–356 (human) (UniProt Q8IXJ6); experiment: cross-linking; Bis(NHS)-PEG5, 10 μM SIRT2^cat pre-equilibrated with SIRT2 inhibitors, 50 μL, 2% DMSO; SDS-PAGE, Coomassie bands quantified
[2] = biological target: SIRT2 catalytic domain (SIRT2^cat), amino acids 34–356 (human) (UniProt Q8IXJ6); experiment: cross-linking; 1 mM Bis(NHS)-PEG5, 10 μM SIRT2 protein, room temperature 1 h, PBS with 1 mM DTT, with or without 12 μM acylated H4K16 peptide, ADP-ribose or the 286-313 peptide; SDS-PAGE, Coomassie bands quantified
[3] = biological target: SIRT2 catalytic domain (SIRT2^cat), amino acids 34–356 (human) (UniProt Q8IXJ6); experiment: as above; remark: listed apart in the source
[4] = biological target: SIRT2 catalytic domain (SIRT2^cat), amino acids 34–356 (human) (UniProt Q8IXJ6); experiment: SEC; analytical SEC, Bio-Rad Enrich SEC 650 column, PBS with 1 mM DTT, 100 μL injected (SIRT2^cat 2-80 μM; full-length SIRT2 56 μM); Kd of dimer to monomers estimated from the peak concentrations at elution, averaged over all runs with two peaks
[5] = biological target: the molecule itself; experiment: cell-based or functional assay
[6] = biological target: myristoyl-H4K16 peptide H4K16 peptide (Homo sapiens, UniProt P62805, myristoylated K16); experiment: gel shift assay
[7] = biological target: T1, SIRT2 catalytic domain (SIRT2^cat), …
SIRT2^cat(Q142A/E340A) = biological target: B1; experiment: cross-linking; 1 mM Bis(NHS)-PEG5, 10 μM SIRT2 protein, room temperature 1 h, PBS with 1 mM DTT, with or without 12 μM acylated H4K16 peptide, ADP-ribose or the 286-313 peptide; SDS-PAGE, Coomassie bands quantified; conditions: both partners purified
[8] = biological target: T2, full-length SIRT2 (amino acids 1–389) …; experiment: as above; conditions: remark: other sources report otherwise
[9] = biological target: T2, full-length SIRT2 (amino acids 1–389) …; experiment: SEC; analytical SEC, Bio-Rad Enrich SEC 650 column, PBS with 1 mM DTT, 100 μL injected (SIRT2^cat 2-80 μM; full-length SIRT2 56 μM); Kd of dimer to monomers estimated from the peak concentrations at elution, averaged over all runs with two peaks; conditions: remark: other sources report otherwise

percent of the protein cross-linked as dimer, no inhibitor [1]: 49.9% and 50.6% | percent of the protein cross-linked as dimer, with 20 μM ascorbyl palmitate [1]: 32.1% | percent of the protein cross-linked as dimer, with 200 μM ascorbyl palmitate [1]: 31.8% | percent of the protein cross-linked as dimer [2]: 50.8% | percent of the protein cross-linked as trimer [2]: 6% | percent of the protein migrating as monomer after cross-linking [2]: 43.2% | percent of the protein cross-linked as dimer [3]: 47.4% | Kd [4]: 121 nM | stoichiometry N [4]: 2
Molecule: SIRT2 catalytic domain (SIRT2^cat), amino acids 34–356 (from UniProt Q8IXJ6-1 34-356) (domain or fragment)

Molecule: B1
fold decrease in de-4-oxononanoylase catalytic efficiency (kcat/Km) of the mutant against wild-type SIRT2^cat [5]: 4 fold | fold decrease in deacetylase catalytic efficiency (kcat/Km, acetyl-H4K16 peptide, 1 mM NAD+) of the mutant against wild-type SIRT2^cat [5]: 6 fold

Molecule: B2
Kd [6]: ~1500 nM

Molecule: B3
Kd [7]: 2000 nM

Molecule: B4
Kd [7]: 1000 nM | binding result (SIRT2^cat(Q142A/E340A)): binds

Molecule: B5
percent of the protein oligomeric after cross-linking [8]: 50% | stoichiometry N [9]: 2
